Test results published in the supplement of paper PMC11908140.

B1: library; numbered along this chain (parent)
chain: MRKPRAAVGSGHRKQAASQEGRQKHAKNNSQAKPSACDGLARQPEEVVLQASVSSYHLFRDVAEVTAFRGSLLSWYDQEKRDLPWRRRAEDEMDLDRRAYAVWVSEVMLQQTQVATVINYYTGWMQKWPTLQDLASASLEEVNQLWAGLGYYSRGRRLQEGARKVVEELGGHMPRTAETLQQLLPGVGRYTAGAIASIAFGQATGVVDGNVARVLCRVRAIGADPSSTLVSQQLWGLAQQLVDPARPGDFNQAAMELGATVCTPQRPLCSQCPVESLCRARQRVEQEQLLASGSLSGSPDVEECAPNTGQCHLCLPPSEPWDQTLGVVNFPRKASRKPPREESSATCVLEQPGALGAQILLVQRPNSGLLAGLWEFPSVTWEPSEQLQRKALLQELQRWAGPLPATHLRHLGEVVHTFSHIKLTYQVYGLALEGQTPVTTVPPGARWLTQEEFHTAAVSTAMKKVFRVYQGQQPGTCMGSKRSQVSSPCSRKKPRMGQQVLDNFFRSHISTDAHSLNSAAQ

Variants of: B1
Experiment: 8OG:A repair function score (normalized; synonymous = 0, nonsense = -1) (normalized log-likelihood score); higher = more repair activity (WT-like)
Details: with 8OG:A DNA repair reporter (GFP) in HEK-293 MUTYH KO cells
Method in brief: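 Lentiviral MUTYH cDNA NNN codon-scan libraries in HEK-293 MUTYH knockout cells (10 pg/ml doxycycline) were co-transfected with an 8OG:A GFP repair reporter plus mCherry. At 72 h, viable mCherry+ cells were sorted into GFP+ (repair) and GFP− bins, three replicates per tile, then tile amplicons were sequenced. Per-tile Rosace fitness scores became a normalized repair function score anchored on synonymous and nonsense distributions. Synonymous medians were set to 0 and nonsense to -1; variants under 300 counts per million at the start were removed.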

Variant | 8OG:A repair function score
MRKPRAAVGSGHRKQAASQEGRQKHAKNNSQAKPSACDGLARQPEEVVLQASVSSYHLFRDVAEVTAFRGSLLSWYDQEKRDLPWRRRAEDEMDLDRRAYAVWVSEVMLQQTQVATVINYYTGWMQKWPTLQDLASASLEEVNQLWAGLGYYSRGRRLQEGARKVVEELGGHMPRTAETLQQLLPGVGRYTAGAIASIAFGQATGVVDGNVARVLCRVRAIGADPSSTLVSQQLWGLAQQLVDPARPGDFNQAAMELGATVCTPQRPLCSQCPVESLCRARQRVEQEQLLASGSLSGSPDVEECAPNTGQCHLCLPPIEPWDQTLGVVNFPRKASRKPPREESSATCVLEQPGALGAQILLVQRPNSGLLAGLWEFPSVTWEPSEQLQRKALLQELQRWAGPLPATHLRHLGEVVHTFSHIKLTYQVYGLALEGQTPVTTVPPGARWLTQEEFHTAAVSTAMKKVFRVYQGQQPGTCMGSKRSQVSSPCSRKKPRMGQQVLDNFFRSHISTDAHSLNSAAQ [S318I] | 0.00356
MRKPRAAVGSGHRKQAASQEGRQKHAKNNSQAKPSACDGLARQPEEVVLQASVSSYHLFRDVAEVTAFRGSLLSWYDQEKRDLPWRRRAEDEMDLDRRAYAVWVSEVMLQQTQVATVINYYTGWMQKWPTLQDLASASLEEVNQLWAGLGYYSRGRRLQEGARKVVEELGGHMPRTAETLQQLLPGVGRYTAGAIASIAFGQATGVVDGNVARVLCRVRAIGADPSSTLVSQQLWGLAQQLVDPARPGDFNQAAMELGATVCTPQRPLCSQCPVESLCRARQRVEQEQLLASGSLSGSPDVEECAPNTGQCHLCLPPEEPWDQTLGVVNFPRKASRKPPREESSATCVLEQPGALGAQILLVQRPNSGLLAGLWEFPSVTWEPSEQLQRKALLQELQRWAGPLPATHLRHLGEVVHTFSHIKLTYQVYGLALEGQTPVTTVPPGARWLTQEEFHTAAVSTAMKKVFRVYQGQQPGTCMGSKRSQVSSPCSRKKPRMGQQVLDNFFRSHISTDAHSLNSAAQ [S318E] | 0.0139
MRKPRAAVGSGHRKQAASQEGRQKHAKNNSQAKPSACDGLARQPEEVVLQASVSSYHLFRDVAEVTAFRGSLLSWYDQEKRDLPWRRRAEDEMDLDRRAYAVWVSEVMLQQTQVATVINYYTGWMQKWPTLQDLASASLEEVNQLWAGLGYYSRGRRLQEGARKVVEELGGHMPRTAETLQQLLPGVGRYTAGAIASIAFGQATGVVDGNVARVLCRVRAIGADPSSTLVSQQLWGLAQQLVDPARPGDFNQAAMELGATVCTPQRPLCSQCPVESLCRARQRVEQEQLLASGSLSGSPDVEECAPNTGQCHLCLPPHEPWDQTLGVVNFPRKASRKPPREESSATCVLEQPGALGAQILLVQRPNSGLLAGLWEFPSVTWEPSEQLQRKALLQELQRWAGPLPATHLRHLGEVVHTFSHIKLTYQVYGLALEGQTPVTTVPPGARWLTQEEFHTAAVSTAMKKVFRVYQGQQPGTCMGSKRSQVSSPCSRKKPRMGQQVLDNFFRSHISTDAHSLNSAAQ [S318H] | -0.0534
MRKPRAAVGSGHRKQAASQEGRQKHAKNNSQAKPSACDGLARQPEEVVLQASVSSYHLFRDVAEVTAFRGSLLSWYDQEKRDLPWRRRAEDEMDLDRRAYAVWVSEVMLQQTQVATVINYYTGWMQKWPTLQDLASASLEEVNQLWAGLGYYSRGRRLQEGARKVVEELGGHMPRTAETLQQLLPGVGRYTAGAIASIAFGQATGVVDGNVARVLCRVRAIGADPSSTLVSQQLWGLAQQLVDPARPGDFNQAAMELGATVCTPQRPLCSQCPVESLCRARQRVEQEQLLASGSLSGSPDVEECAPNTGQCHLCLPPGEPWDQTLGVVNFPRKASRKPPREESSATCVLEQPGALGAQILLVQRPNSGLLAGLWEFPSVTWEPSEQLQRKALLQELQRWAGPLPATHLRHLGEVVHTFSHIKLTYQVYGLALEGQTPVTTVPPGARWLTQEEFHTAAVSTAMKKVFRVYQGQQPGTCMGSKRSQVSSPCSRKKPRMGQQVLDNFFRSHISTDAHSLNSAAQ [S318G] | -0.0532
MRKPRAAVGSGHRKQAASQEGRQKHAKNNSQAKPSACDGLARQPEEVVLQASVSSYHLFRDVAEVTAFRGSLLSWYDQEKRDLPWRRRAEDEMDLDRRAYAVWVSEVMLQQTQVATVINYYTGWMQKWPTLQDLASASLEEVNQLWAGLGYYSRGRRLQEGARKVVEELGGHMPRTAETLQQLLPGVGRYTAGAIASIAFGQATGVVDGNVARVLCRVRAIGADPSSTLVSQQLWGLAQQLVDPARPGDFNQAAMELGATVCTPQRPLCSQCPVESLCRARQRVEQEQLLASGSLSGSPDVEECAPNTGQCHLCLPPCEPWDQTLGVVNFPRKASRKPPREESSATCVLEQPGALGAQILLVQRPNSGLLAGLWEFPSVTWEPSEQLQRKALLQELQRWAGPLPATHLRHLGEVVHTFSHIKLTYQVYGLALEGQTPVTTVPPGARWLTQEEFHTAAVSTAMKKVFRVYQGQQPGTCMGSKRSQVSSPCSRKKPRMGQQVLDNFFRSHISTDAHSLNSAAQ [S318C] | -0.0155
MRKPRAAVGSGHRKQAASQEGRQKHAKNNSQAKPSACDGLARQPEEVVLQASVSSYHLFRDVAEVTAFRGSLLSWYDQEKRDLPWRRRAEDEMDLDRRAYAVWVSEVMLQQTQVATVINYYTGWMQKWPTLQDLASASLEEVNQLWAGLGYYSRGRRLQEGARKVVEELGGHMPRTAETLQQLLPGVGRYTAGAIASIAFGQATGVVDGNVARVLCRVRAIGADPSSTLVSQQLWGLAQQLVDPARPGDFNQAAMELGATVCTPQRPLCSQCPVESLCRARQRVEQEQLLASGSLSGSPDVEECAPNTGQCHLCLPPAEPWDQTLGVVNFPRKASRKPPREESSATCVLEQPGALGAQILLVQRPNSGLLAGLWEFPSVTWEPSEQLQRKALLQELQRWAGPLPATHLRHLGEVVHTFSHIKLTYQVYGLALEGQTPVTTVPPGARWLTQEEFHTAAVSTAMKKVFRVYQGQQPGTCMGSKRSQVSSPCSRKKPRMGQQVLDNFFRSHISTDAHSLNSAAQ [S318A] | 0.0892
